Consider one molecule from publication PMC4158885 (The EMBO Journal, 2014).

The assay has as its target T1, ctPan2 Δ343–352 (PID deletion in full-length ctPan2) (Chaetomium thermophilum, UniProt G0SAK8 1-1170, Δ343–352).
T1 sequence (looked up): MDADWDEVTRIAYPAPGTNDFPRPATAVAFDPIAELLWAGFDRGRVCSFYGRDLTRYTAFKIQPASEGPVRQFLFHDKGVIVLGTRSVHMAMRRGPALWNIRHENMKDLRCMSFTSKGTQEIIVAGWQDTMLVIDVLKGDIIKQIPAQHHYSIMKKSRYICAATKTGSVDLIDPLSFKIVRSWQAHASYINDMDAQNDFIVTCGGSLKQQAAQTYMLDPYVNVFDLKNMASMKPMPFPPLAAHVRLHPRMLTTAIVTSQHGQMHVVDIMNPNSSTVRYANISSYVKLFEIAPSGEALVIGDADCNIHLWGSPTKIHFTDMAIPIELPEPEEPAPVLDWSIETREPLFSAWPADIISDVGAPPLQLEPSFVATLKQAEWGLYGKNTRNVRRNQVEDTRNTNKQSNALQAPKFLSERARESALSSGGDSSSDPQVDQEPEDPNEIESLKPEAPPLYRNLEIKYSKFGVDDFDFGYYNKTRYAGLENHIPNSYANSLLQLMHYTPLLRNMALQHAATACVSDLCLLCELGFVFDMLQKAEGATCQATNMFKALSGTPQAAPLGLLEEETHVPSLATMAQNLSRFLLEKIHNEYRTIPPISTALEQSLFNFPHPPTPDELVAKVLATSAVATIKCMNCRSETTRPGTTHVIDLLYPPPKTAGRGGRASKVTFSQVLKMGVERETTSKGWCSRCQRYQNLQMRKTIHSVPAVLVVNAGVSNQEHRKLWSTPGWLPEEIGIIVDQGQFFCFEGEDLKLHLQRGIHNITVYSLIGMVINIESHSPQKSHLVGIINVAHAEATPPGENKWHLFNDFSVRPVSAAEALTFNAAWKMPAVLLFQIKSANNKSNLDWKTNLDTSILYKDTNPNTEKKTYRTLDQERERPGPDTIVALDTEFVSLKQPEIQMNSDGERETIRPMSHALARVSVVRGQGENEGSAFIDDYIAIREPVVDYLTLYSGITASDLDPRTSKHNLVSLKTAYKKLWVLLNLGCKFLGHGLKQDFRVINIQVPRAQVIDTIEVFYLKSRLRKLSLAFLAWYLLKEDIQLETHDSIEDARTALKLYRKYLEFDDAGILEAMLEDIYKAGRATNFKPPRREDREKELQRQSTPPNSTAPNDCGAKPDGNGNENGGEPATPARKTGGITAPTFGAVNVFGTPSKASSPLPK
In words: SEC; separately purified ctPan2 constructs and ctPan3 PKC dimer mixed 1:1 at 1 μM, 15 min at room temperature; Superdex 200 Increase 3.2/300 in 20 mM Tris pH 8.0, 500 mM NaCl, 2 mM TCEP; fractions on SDS–PAGE. To be noted: both partners purified. (In general: In gel filtration, larger molecules generally elute earlier.)

B1: ctPan3 pseudokinase/C-terminal domain (PKC, residues 205–640), purified from E. coli (domain or fragment, Chaetomium thermophilum, UniProt G0S0Y3 205-640, looked up)
chain: RQELQPWQRATYDFFMPQNLREDLQKKQFATLQVIPNSGLPQLEHWHSLVPLDTSNRKNTSCFGYPSWVYKAQNSRNGRHYALRRLEGYRLTNEKAILNVMKDWKKIKNASIVTIHEVFTTREFGDSSLIFAYDFHPLSKTLQEHHFQPIHGNRYRPPPAVPENTIWGYICQIANALKTIHSNRLAARCLEPSKIILTDINRIRLSACAILDVVQFGMNSRSVVELQQEDFVKFGKLILSLATGTLPAHLNNIPAALETLGNKYSANLKSAVNWLLDTSSGETKTIEHFMTGIASQMTTFFDLALQDNDEKLFHLAREVENGRIARSLMKLLTILERGDYDGVPSWSETGDRYQLKLFRDYVFHRVDADGKPNLSIGHMLTCMSKLEAGVDENILLTSRDNETVFVLSYRELRQMYDRAFNELVKASKTGAPGANT
notes: Pan3, Chaetomium thermophilum, pseudokinase (242-497), coiled coil (499-538) and C-terminal domain (555-640), construct residues 205-640; The crystals of ctPan3 PKC alone (PDB 4CYI) were of Se-Met-labelled protein; also called ctPan3 PKC; ctPan3 PKC dimer; source: E. coli, purified (glutathione Sepharose)
B1: the binding result is “binds”.
